# Laboratory results from the supplement of paper PMC9170038.
# System: MS2 coat protein
# Assay: apparent KD of MS2 coat protein; designed switch direction (-1 OFF switch, 1 ON switch): -1; higher = weaker reporter binding
# Procedure, shortened: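 Transcription of designed RNA switches on Illumina chips was done by stalled E. coli RNA polymerase. SNAP-549-labelled MS2 coat protein was then titrated in doubling steps from 0.7 or 1.5 nM to 3 µM, with steps of 0.8–1.5 h at the lowest and 10–20 min at the highest concentration. The per-design median over clusters of curve-fitted normalised fluorescence is reported as apparent KD.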
# [1] = input ligand: microRNA oligo, concentration not stated
# [2] = Eterna round: R95, input ligand: FMN 200 uM
# [3] = Eterna round: R95, input ligand: microRNA oligo, concentration not stated
# [4] = Eterna round: R95, input ligand: none
Sequence,apparent KD of MS2 coat protein (input ligand: FMN 200 uM),apparent KD of MS2 coat protein [1],apparent KD of MS2 coat protein (input ligand: none),apparent KD of MS2 coat protein [2],apparent KD of MS2 coat protein [3],apparent KD of MS2 coat protein [4]
"AAAAAAAAGUGAGGAUAUGGAAAUUUGGUGAUAACAUGAGGAUCACCCAUGUGAAAACAAUAAAAUUAGAAGGUAUAAAAAAAA [AK ExNG2-1] (Eterna round: R96, puzzle: Exclusion NG 2)",122 nM,73.1 nM,98.8 nM,–,–,–
"AAAAAACAUGAGGAUCACCCAUGUUAGGAUAUGCUAUGGAAAAUAAAAAAUAAACAUAGCAGAAGGAACAAAAA [Mat - Exclusion 1 - Eli mod - D30] (Eterna round: R96, puzzle: Exclusion 1)",–,33.2 nM,–,–,–,–
AAAAAGCGAGGAUAUGCAUAAGGACCCGGGCGGGAAGUCGGACAUGAGGAUCACCCAUGUAGAAGGCGCAAAAA [Exclss2-V] (puzzle: Exclusion 2),–,–,–,25.5 nM,13.2 nM,14.4 nM
"AAAAAGGUAGGAUAUACGAAAAAAAAGGGUAAAAUAAAUAAACAUGAGGAUCACCCAUGUAGAAGGACCAAAAA [Mat - Exclusion 2 - Tesla mod - D38] (Eterna round: R96, puzzle: Exclusion 2)",–,22.8 nM,–,–,–,–
"AAAAAGUGAGGAUAUACAUGAGGAUCACCCAUGUAAUAAAAAAAAAGGGUGGAAGAAAGUAGAAGGCACCAAAA [Ex 3 May 48] (Eterna round: R96, puzzle: Exclusion 3)",323 nM,64.5 nM,65.3 nM,–,–,–
"AAAACGGACCGAGGAUAUACAUGAUAUCUUUACGUAGAAGGCGGACCGGCGACUUGAGGAUCACCCAAGUGUCCUCUUUUGCGG [Mutated MS2 EX1.26] (Eterna round: R96, puzzle: Exclusion NG 1)",184 nM,51.1 nM,46.7 nM,–,–,–
"AAAACUCGAGUUAGGAUAUUGAGUGCUAAAAUCACCAAGAAGGAACAUGAGGAUCACCCAUGUAACGAAGGUGA [BmEX4 A.10] (Eterna round: R97, puzzle: Brourd's mod of Exclusion 4)",19.8 nM,–,16 nM,–,–,–
AAAAGGUCAGGAUAUGCGAGCGGCAGGGAGGCAGGUCGGUGGCAGAAGGGACAUGAGGAUCACCCAUGUUAAAA [Excls4-II] (puzzle: Exclusion 4),–,–,–,–,29.2 nM,–
AAAAUAAGUGUGAGGAUAUGCUGGUCCUUGGAUCAGCAGAAGGCACAUGAGGAUCACCCAUGUAAUAUAUUUAU [Mat - Exclusion 4 - JL Mod - D62] (puzzle: Brourd's mod of Exclusion 4),–,–,–,–,77.3 nM,–
"AAACAAGCAACGAGAUCCCACAUGAGGAUCACCCAUGUCAACUGAAGUUUUAAAUCUUCAGGCUCGUCUUAUAACAA [S_tov1_V1.1] (Eterna round: R97, puzzle: Sensor, turn-off variant 1)",33.6 nM,–,34.8 nM,–,–,–
"AAACAGCAAGGAUAUACGGGCUGUGCUUUUCAUAUCAUACAACAUGAGGAUCACCCAUGUAGAAGGUGCAACAA [Ex2 #3] (Eterna round: R97, puzzle: Exclusion 2)",146 nM,–,44 nM,–,–,–
AAACAGGAAGGAUAUACAUUAUCGGAUCUUCUGGCAAUGCCACAUGAGGAUCACCCAUGUAGAAGGUCCAAAUU [Isenona] (puzzle: Exclusion 2),–,–,–,–,12.7 nM,–
"AAACCUGCCCAUGACCGCAAGCUUUUUGCUUGUCUCACCACAUGAGGAUCACCCAUGUGACAUGGGCUCCUUAUAAA [Orvesovera] (puzzle: Sensor v3, turn-off variant 2)",–,–,–,13.7 nM,9.96 nM,12 nM
"AAACUCCGGGUGAGGAUAUCUAGCAUCAAGACGCGAGAGAAGGCACUUGAGGAUCACCCAAGUACGUGGCCUAA [Quare] (Eterna round: R97, puzzle: Brourd's mod of Exclusion 4)",153 nM,–,99.9 nM,–,–,–
"AAACUGAGGCAAAGCUUUAGUCGUACAUGAGGAUCACCCAUGUAGGAUAUGGUAGGCAAAGCUUACCAGAAGGACAGAGUGAUC [Mat - Exclusion NG 3 - Mod of JL - D57] (Eterna round: R96, puzzle: Exclusion NG 3)",251 nM,487 nM,344 nM,–,–,–
"AAAGAACAUGAGGAUCACCCAUGUUAGGAUAUAGUAGCAGUGUAUCUAAAGACAGCAGCUAGAAGGAGCAUGAG [Eternabot (Original) Solution 46] (Eterna round: R97, puzzle: Exclusion 1)",77.4 nM,–,74.3 nM,–,–,–
AAAGAAGAAGUCAGGAUAUAGUUAAAGAAGACCGACUAGAAGGGACAUGAGGAUCACCCAUGUGUCAGUGGGUA [Lasoaned] (puzzle: Brourd's mod of Exclusion 4),–,–,–,279 nM,77.6 nM,133 nM

Sequence,apparent KD of MS2 coat protein (input ligand: FMN 200 uM),apparent KD of MS2 coat protein [1],apparent KD of MS2 coat protein (input ligand: none),apparent KD of MS2 coat protein [2],apparent KD of MS2 coat protein [3],apparent KD of MS2 coat protein [4]
"AAAGCAAAGACAGGAUAUCGACCCAGUGAUUUUCGUGCCGGAAACAUGAGGAUCACCCAUGUGUACGAGAAGGGUCAAAACAAC [Uslebeteat] (Eterna round: R96, puzzle: Exclusion NG 2)",61.9 nM,17.1 nM,22.3 nM,–,–,–
"AAAGCGCGGUGAUAAUCUGUAACAUGAGGAUCACCCAUGUAGCAGGAUAUGGGCACAGUGGAAACUCAGAAGGGCUAUAAGCGC [Eternabot solution 21] (Eterna round: R96, puzzle: Exclusion NG 3)",171 nM,369 nM,288 nM,–,–,–
"AAAUACAAGCAAAGAUCCUACAUGAGGAUCACCCAUGUGCUCGUCUUAUAAAGUACUAUCACGAAAGUGAUAGUACA [Sensor 3, v1 - 15] (puzzle: Sensor v3, turn-off variant 1)",–,–,–,286 nM,48.2 nM,1110 nM
"AAAUACAAGCAAAGAUUCUACAUGAGGAUCACCCAUGUGCUCGUCUUAUAAAGUACUAUCACGAAAGUGAUAGUACA [Sensor 3, v1 - 33] (puzzle: Sensor v3, turn-off variant 1)",–,–,–,21.3 nM,161 nM,23.2 nM
"AAAUAGCAAGUUUGAUCCUACAUGAGGAUCACCCAUGUGUUCGUCUUAUUUGAAGACAACACAAAAGUGUUGUCUUA [Omei Mir OFFv1 B1] (Eterna round: R97, puzzle: Sensor, turn-off variant 1)",1100 nM,–,1300 nM,–,–,–
"AAAUAGCGAGGAUAUACUGGAAUAGAAAAUAUUCGCAUGGCACAUGAGGAUCACCCAUGUAGAAGGCGCAGUAA (Eterna round: R97, puzzle: Exclusion 2)",85.5 nM,–,25.5 nM,–,–,–
"AAAUAGCUAGAGGAUAUUGGAUAGGAUUUAGUGCGAGAAGGCUAGACAUGAGGAUCACCCAUGUUGUGUUGGGA [EX6 #14] (Eterna round: R97, puzzle: Exclusion 6)",82.3 nM,–,50.3 nM,–,–,–
"AAAUCGGUAGAGGAUAUUGUACAGGAAACGGUGCGAGAAGGUUGCACAUGAGGAUCACCCAUGUUUAAUUGCGA [EX6 #49] (Eterna round: R97, puzzle: Exclusion 6)",43.1 nM,–,28.5 nM,–,–,–
"AAAUUAGCAAGUAGGUCCGACAUGAGGAUCACCCAUGUUAUCUGAAAUAACGCAGCAUGAUUGUGCGCUCGUCUUAG [Sensor-V1 #7] (Eterna round: R97, puzzle: Sensor, turn-off variant 1)",67.6 nM,–,68.6 nM,–,–,–
"AAAUUCAGAGGAUAUGCGCAUAGAUAAGACUUUUUUUCUUAACAUGAGGAUCACCCAUGUAGAAGGCUGUAAAA [Ex2 #60] (Eterna round: R97, puzzle: Exclusion 2)",20.5 nM,–,18.4 nM,–,–,–
AACAAACAUGAGGAUCACCCAUGUGAGGAUAUGCAACAAAACAAAACAAAACAAAACAGCAGAAGGCACACAAC [A-G Solution By Eric] (puzzle: Exclusion 1),–,–,–,17.2 nM,19.2 nM,14.6 nM
"AACAAUACUUACAUAAUAAGGCUUUUCAGGUCGGGUACCACAUGAGGAUCACCCAUGUAGCAGCCUAGGGAAUGAUA [JR_Sensorv2_tov2_Sub1233] (Eterna round: R96, puzzle: Sensor v2, turn-off variant 2)",49.2 nM,36.4 nM,46.1 nM,–,–,–
"AACAGAUGAGGAUAUACACGAGGAGUGAUACCGUAUGCCAGACAUGAGGAUCACCCAUGUAGAAGGCAUAAUAG [Celeated] (Eterna round: R97, puzzle: Exclusion 2)",18.9 nM,–,12.4 nM,–,–,–
"AACAGUACAGGAUAUACAUGAGGAUCACCCAUGUGAGAAUUAAGUGGAAAACCACAAAGUAGAAGGGUACUGGA [Mat - Exclusion 3 - JL mod - D3] (Eterna round: R96, puzzle: Exclusion 3)",209 nM,23.3 nM,–,–,–,–
"AACAGUACAGGAUAUACAUGAGGAUCACCCAUGUGAGAAUUAAGUGGCGAACCACAAAGUAGAAGGGUACUGGA [Mat - Exclusion 3 - JL mod - D1] (Eterna round: R96, puzzle: Exclusion 3)",98.2 nM,38.5 nM,46.3 nM,–,–,–
"AACAGUAGAGGAUAUACACGAACAAACAUGAGGAUCACCCAUGUGAAACCGUGCUGUCCGGUAGAAGGCUACUAUA [Zavetiaton] (Eterna round: R97, puzzle: Exclusion 5)",40.6 nM,–,17.4 nM,–,–,–
"AACCUGAGGCAAAGCUUUAGGUGUACAUGAGGAUCACCCAUGUAGGAUAUGGUAGGCAAAGCUUACCAGAAGGACAUUAUGAUA [Mat - Exclusion NG 3 - Mod of JL - D52] (Eterna round: R96, puzzle: Exclusion NG 3)",66.9 nM,44 nM,53.1 nM,–,–,–
